{"source": "patent US20250297215A1", "about": "“METHOD FOR PRODUCING MILK LIKE PRODUCTS” (SOCIETE DES PRODUITS NESTLE S.A., priority 2021, published 2025)", "key": {"[1]": {"test_system": "human-induced pluripotent stem cell (hiPSC) line 603", "test": "Flow cytometry quantification of mammary gland progenitor markers after BMP4 treatment, 3D-organoid setting", "format": "cell-based", "details": "20 ng/ml BMP4, day 0 to day 3, flow cytometry", "protocol": "(§1) Methods: The human-induced pluripotent stem cell (hiPSC) line 603 was purchased from Fujifilm Cellular Dynamics, Inc (FCDI) and used for the 3D-differentiaion of mammary gland progenitors. Briefly, 5.5 million dissociated iPSCs were plated in the 6 well-plates (ultra-low attachment) containing 4.5 mL aggregation media using a planar shaker platform (set at 95 RPM). BMP4 (314-BP-050, Bio-Techne AG) at different concentrations was added to the culture media between day 0 and day 3."}, "[2]": {"test_system": "human-induced pluripotent stem cell (hiPSC) line 603", "test": "Nanostring RNA expression of lineage markers after BMP4 treatment, 3D-organoid setting", "format": "cell-based", "protocol": "as §1\nResults: iPSC cells were tested with different concentrations of BMP4 to induce non-neural ectodermal differentiation (FIG. 6a, b). […] Expression of human TFAP2A and TFAP2C (AP2 Gamma) as predominant non-neural ectodermal markers were increased at day 10 of differentiation using Nanostring analysis compared to the control sample (FIG. 6g-h). Moreover, expression levels of human specific neural ectoderm markers, such as paired box gene 6 (PAX6), orthodenticle homeobox 2 (OTX2) and SRY-box transcription factor 11 (SOX11) were decreased during differentiation (FIG. 6i-k)."}, "iPSC cells": {"test_system": "iPSC cells", "test": "RNA expression of ESRRA, KRT14 and MUC1 at end-stage of 3D-mammary gland differentiation", "format": "cell-based, human", "details": "day 30, 33 and 35, compared to the control sample", "protocol": "The effect of BMP4 at the end-stage of 3D-mammary gland differentiation of iPSC cells was assessed using estrogen related receptor alpha (ESRRA), Keratin 14 (KRT14) and MUC1 for their expression profiles."}, "[3]": {"test_system": "iPSCs derived mammary gland organoids", "test": "Flow cytometry of progenitor markers, BMP4 and RA single or combined, 42 days and 31 days protocols", "format": "cell-based, human", "details": "20 ng/ml BMP4, 1 μM RA, single or combination, compared to the control condition", "description": "In order to generate milk bioactives that closely resemble those found in human breast milk, different methods using bone morphogenetic protein 4 (BMP4) and retinoic acid (RA) in 42 days and 31 days as a shortened time-course protocol were established in a 3D-platform using iPSCs derived mammary gland organoids as a biomimetic model of the human mammary gland (FIG. 9)."}, "[4]": {"test_system": "iPS-derived mammary-gland cells", "test": "LC-MS/MS targeted proteomic analysis of osteopontin protein secretion", "format": "cell-based, human", "details": "also detected with control differentiation method", "description": "Human osteopontin peptides—GDSVVYGLR and -YPDAVATWLNPDPSQK were specifically detected in the cell culture supernatant by LC-MS/MS (FIG. 10).\nOsteopontin protein secretion was detected in the media of cultures of iPS-derived mammary-gland cells using control differentiation method, or with bone morphogenetic protein 4 (BMP4), retinoic acid (RA) and in the combination of the two factors."}}}
{"molecule": "BMP4: bone morphogenetic protein 4 (314-BP-050, Bio-Techne AG), added to the culture media (protein, UniProt P12644 293-408, looked up) Bone morphogenetic protein 4: SPKHHSQRARKKNKNCRRHSLYVDFSDVGWNDWIVAPPGYQAFYCHGDCPFPLADHLNSTNHAIVQTLVNSVNSSIPKACCVPTELSAISMLYLDEYDKVVLKNYQEMVVEGCGCR", "values": [{"measurement": "expression of mammary gland progenitor markers EpCAM (CD326), CD49f, MUC1 (CD227) and GATA3", "setting": "[1]", "value": "significantly induced"}, {"measurement": "expression of luminal marker KRT18 and osteopontin (OPN)", "setting": "[2]; RNA expression level", "value": "can induce the expression"}, {"measurement": "expression of human TFAP2A and TFAP2C (non-neural ectodermal markers)", "setting": "[2]; day 10 of differentiation, compared to the control sample", "value": "increased"}, {"measurement": "expression levels of neural ectoderm markers PAX6, OTX2 and SOX11", "setting": "[2]; during differentiation", "value": "decreased"}, {"measurement": "RNA expression levels of ESRRA, KRT14 and MUC1", "setting": "iPSC cells", "value": "increased"}, {"measurement": "expression of mammary gland progenitor markers EpCAM, CD49f, MUC1 and GATA3 (induced or maintained)", "setting": "[3]", "value": "can induce the expression"}, {"measurement": "osteopontin protein secretion in culture media", "setting": "[4]", "value": "detected"}]}
